In article PMC11341566 (Nature Communications, 2024) one finds Kd data, which are given here for four molecules.

Square brackets hold non-standard residues; d marks the D form.

One may read the Kd as the equilibrium constant for the complex coming apart.

Assay [1] concerns the target CP-CNDS, fluorescein-labelled (mixture of DCP1 and DCP2, mass ratio 2:3). Description: fluorescence polarisation.
Another assay concerns the target T1, trypsin (UniProt P35030 81-304).
T1 sequence (looked up): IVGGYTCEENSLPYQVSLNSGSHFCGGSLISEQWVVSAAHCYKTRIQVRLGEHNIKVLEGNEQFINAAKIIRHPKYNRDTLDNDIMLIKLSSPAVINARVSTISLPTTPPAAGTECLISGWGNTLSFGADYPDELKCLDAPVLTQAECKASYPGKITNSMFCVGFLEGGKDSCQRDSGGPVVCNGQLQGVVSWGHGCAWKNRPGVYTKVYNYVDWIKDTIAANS

The next assay deals with T2, lipase (UniProt P16233 17-465).
T2 sequence (looked up): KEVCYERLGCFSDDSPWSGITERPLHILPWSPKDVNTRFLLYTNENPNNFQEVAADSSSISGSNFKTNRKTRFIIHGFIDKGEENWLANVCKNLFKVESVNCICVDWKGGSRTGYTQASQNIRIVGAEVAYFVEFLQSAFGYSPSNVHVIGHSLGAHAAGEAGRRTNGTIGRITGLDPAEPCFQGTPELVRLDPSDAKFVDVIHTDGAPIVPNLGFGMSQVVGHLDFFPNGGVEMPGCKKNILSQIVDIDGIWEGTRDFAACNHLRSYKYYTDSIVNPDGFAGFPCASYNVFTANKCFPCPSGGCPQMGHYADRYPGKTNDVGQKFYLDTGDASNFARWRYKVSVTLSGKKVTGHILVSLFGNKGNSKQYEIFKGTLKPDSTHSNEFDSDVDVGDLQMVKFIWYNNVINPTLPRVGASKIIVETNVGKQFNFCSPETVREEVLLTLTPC

For chymotrypsin (enzyme), in the assay with Ac-(rada)4-NH2, the Kd came out at 227 nM.

B1: trypsin (enzyme)
chain: IVGGYTCEENSLPYQVSLNSGSHFCGGSLISEQWVVSAAHCYKTRIQVRLGEHNIKVLEGNEQFINAAKIIRHPKYNRDTLDNDIMLIKLSSPAVINARVSTISLPTTPPAAGTECLISGWGNTLSFGADYPDELKCLDAPVLTQAECKASYPGKITNSMFCVGFLEGGKDSCQRDSGGPVVCNGQLQGVVSWGHGCAWKNRPGVYTKVYNYVDWIKDTIAANS
Turning to B1, the Kd in assay [1] was determined as 102 nM.

B2: lipase (enzyme)
chain: KEVCYERLGCFSDDSPWSGITERPLHILPWSPKDVNTRFLLYTNENPNNFQEVAADSSSISGSNFKTNRKTRFIIHGFIDKGEENWLANVCKNLFKVESVNCICVDWKGGSRTGYTQASQNIRIVGAEVAYFVEFLQSAFGYSPSNVHVIGHSLGAHAAGEAGRRTNGTIGRITGLDPAEPCFQGTPELVRLDPSDAKFVDVIHTDGAPIVPNLGFGMSQVVGHLDFFPNGGVEMPGCKKNILSQIVDIDGIWEGTRDFAACNHLRSYKYYTDSIVNPDGFAGFPCASYNVFTANKCFPCPSGGCPQMGHYADRYPGKTNDVGQKFYLDTGDASNFARWRYKVSVTLSGKKVTGHILVSLFGNKGNSKQYEIFKGTLKPDSTHSNEFDSDVDVGDLQMVKFIWYNNVINPTLPRVGASKIIVETNVGKQFNFCSPETVREEVLLTLTPC
As for B2, the dissociation constant (Kd) in assay [1] was determined as 251 nM.

B3: Ac-(rada)4-NH2 (peptide)
peptide: Ac-[dR][dA][dD][dA][dR][dA][dD][dA][dR][dA][dD][dA][dR][dA][dD][dA]-NH2
On to B3, for which the Kd is around 342 nM with trypsin and around 452 nM with lipase.
